Measured values from US20030120051A1 (SUGEN, published 2003).

Biological target: T1, rat CASPR/p190 (rat, UniProt P97846 21-1381)
T1 construct: Endogenous in GH3 cells and rat brain, or expressed from pCM190R in COS7 cells; read from membrane lysates; no cleavage site stated; also called Contactin ASsociated PRotein; 190 kDa protein
T1 sequence: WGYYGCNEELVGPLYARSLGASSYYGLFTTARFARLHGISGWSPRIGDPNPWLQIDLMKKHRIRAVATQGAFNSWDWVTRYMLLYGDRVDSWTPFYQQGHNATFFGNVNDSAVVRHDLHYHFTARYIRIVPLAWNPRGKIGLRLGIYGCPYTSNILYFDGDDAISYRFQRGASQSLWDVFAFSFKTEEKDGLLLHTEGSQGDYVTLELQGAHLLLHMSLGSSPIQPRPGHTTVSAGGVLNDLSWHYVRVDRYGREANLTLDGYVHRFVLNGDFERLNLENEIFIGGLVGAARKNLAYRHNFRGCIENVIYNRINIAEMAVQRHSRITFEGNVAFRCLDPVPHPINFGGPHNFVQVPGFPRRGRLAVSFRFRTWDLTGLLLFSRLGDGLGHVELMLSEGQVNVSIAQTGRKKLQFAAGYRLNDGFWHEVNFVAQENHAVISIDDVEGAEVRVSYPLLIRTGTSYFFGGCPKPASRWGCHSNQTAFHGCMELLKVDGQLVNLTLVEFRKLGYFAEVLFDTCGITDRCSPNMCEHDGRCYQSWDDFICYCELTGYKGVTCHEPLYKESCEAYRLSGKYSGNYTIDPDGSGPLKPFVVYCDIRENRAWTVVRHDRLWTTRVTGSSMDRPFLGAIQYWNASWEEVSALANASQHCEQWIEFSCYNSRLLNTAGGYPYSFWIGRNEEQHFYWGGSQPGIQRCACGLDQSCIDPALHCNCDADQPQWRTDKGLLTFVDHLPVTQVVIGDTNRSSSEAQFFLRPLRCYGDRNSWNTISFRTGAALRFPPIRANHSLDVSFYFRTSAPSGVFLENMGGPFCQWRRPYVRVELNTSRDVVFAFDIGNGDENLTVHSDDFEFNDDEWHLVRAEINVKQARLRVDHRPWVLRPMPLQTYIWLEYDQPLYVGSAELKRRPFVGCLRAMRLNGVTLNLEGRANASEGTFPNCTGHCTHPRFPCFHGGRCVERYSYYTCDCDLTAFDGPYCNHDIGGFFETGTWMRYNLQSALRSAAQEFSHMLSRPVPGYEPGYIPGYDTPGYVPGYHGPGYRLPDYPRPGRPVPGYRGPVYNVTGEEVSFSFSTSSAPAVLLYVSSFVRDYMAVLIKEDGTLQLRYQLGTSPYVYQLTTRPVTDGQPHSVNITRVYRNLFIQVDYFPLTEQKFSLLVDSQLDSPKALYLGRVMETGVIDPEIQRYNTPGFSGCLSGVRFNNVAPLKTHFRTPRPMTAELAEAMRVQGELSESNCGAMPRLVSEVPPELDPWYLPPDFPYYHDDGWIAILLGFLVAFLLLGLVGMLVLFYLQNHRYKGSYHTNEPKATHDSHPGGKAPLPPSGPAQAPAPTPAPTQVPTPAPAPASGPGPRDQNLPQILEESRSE
Test: co-precipitation of p190 with contactin by the RPTPβ Fc fusion from GH3 membrane extracts

B1: rat contactin (clone F8; p140 of GH3 cells) (receptor, UniProt Q63198 21-1001, looked up)
chain: EFTWHRRYGHGVSEEDKGFGPIFEEQPINTIYPEESLEGKVSLNCRARASPFPVYKWRMNNGDVDLTNDRYSMVGGNLVINNPDKQKDAGIYYCLASNNYGMVRSTEATLSFGYLDPFPPEDRPEVKVKEGKGMVLLCDPPYHFPDDLSYRWLLNEFPVFITMDKRRFVSQTNGNLYIANVESSDRGNYSCFVSSPSITKSVFSKFIPLIPIPERTTKPYPADIVVQFKDIYTMMGQNVTLECFALGNPVPDIRWRKVLEPMPTTAEISTSGAVLKIFNIQLEDEGLYECEAENIRGKDKHQARIYVQAFPEWVEHINDTEVDIGSDLYWPCVATGKPIPTIRWLKNGYAYHKGELRLYDVTFENAGMYQCIAENAYGTIYANAELKILALAPTFEMNPMKKKILAAKGGRVIIECKPKAAPKPKFSWSKGTEWLVNSSRILIWEDGSLEINNITRNDGGIYTCFAENNRGKANSTGTLVITNPTRIILAPINADITVGENATMQCAASFDPSLDLTFVWSFNGYVIDFNKEITNIHYQRNFMLDANGELLIRNAQLKHAGRYTCTAQTIVDNSSASADLVVRGPPGPPGGLRIEDIRATSVALTWSRGSDNHSPISKYTIQTKTILSDDWKDAKTDPPIIEGNMESAKAVDLIPWMEYEFRVVATNTLGTGEPSIPSNRIKTDGAAPNVAPSDVGGGGGTNRELTITWAPLSREYHYGNNFGYIVAFKPFDGEEWKKVTVTNPDTGRYVHKDETMTPSTAFQVKVKAFNNKGDGPYSLIAVINSAQDAPSEAPTEVGVKVLSSSEISVHWKHVLEKIVESYQIRYWAGHDKEAAAHRVQVTSQEYSARLENLLPDTQYFIEVGACNSAGCGPSSDVIETFTRKAPPSQPPRIISSVRSGSRYIITWDHVVALSNESTVTGYKILYRPDGQHDGKLFSTHKHSIEVPIPRDGEYVVEVRAHSDGGDGVVSQVKISGVSTLS
modifications: GPI-anchored
notes: whole, on cells; On transfected COS7 cells, on GH3 cells, in solubilized GH3 membranes or in rat brain membranes, as the entry says; also called rat homologue of contactin; F3/F11
  binding result: binds
